From patent US6905854B2, “Mutated penicillin expandase and process for preparing 7-ADCA using the same” (Synmax Biochemical Co., Ltd., priority 2002, dated 2005)

Legend:
Assay type in all cases: biochemical
[1] = DAOCS activity assay with cell extracts; conditions: 20 μl cell extract, 7 mM penicillin G, 30° C., 20 minutes
Description: BL21(DE3) transformants were grown overnight in 5 ml of LB medium with 50 μg/ml kanamycin at 30° C. This culture was used to inoculate 100 ml of the same medium and grown at 30° C. for 1 hour. Then 0.1 mM IPTG was added to induce DAOCS indirectly at 30° C. for 4 hours. Cells were harvested, washed with buffer A (50 mM Mops/pH 7.5, 1 mM PMSF, 1 mM DTT, and 0.5 μg/ml leupeptin), lysed by sonication (VCX 750; Sonics & Materials, USA), and centrifuged at 15,000×g for 15 minutes. The supernatant was used as a cell extract.
(§1) For penicillin G, 20 μl of cell extracts was added into a standard 200 μl assay reaction containing 50 mM Mops/pH 7.5, 4 mM ascorbate, 1 mM FeSO4, 4 mM α-ketoglutarate and 7 mM penicillin G, and incubated at 30° C. for 20 minutes. The reaction was stopped by addition of 200 μl of ethanol, followed by a centrifugation at 15,000×g for 5 minutes. The concentration of cephalosporin G in supernatant was analyzed by HPLC with 40 μl injection. The mobile phase was 25 mM potassium phosphate/pH 6.5 with 19% acetonitrile at a flow rate of 1 ml/min. The retention time for cephalosporin G was 8.5 minutes and 12.5 minutes for penicillin G with detection at 215 nm, and the product at 8.5 minutes in DAOCS reaction was confirmed by ESI-LC/MS (positive): [M+H]^+=333. […] The different combinations of the mutated amino acids mentioned above were also constructed by site-directed mutagenesis.

[2] = Kinetic assay of purified DAOCS with penicillin N as main substrate; conditions: for kcat / Km: for penicillin N, 0.5 μg purified DAOCS, 30° C., 10 minutes; for Km: triplicate, Hanes-Woolf Plot
Description: (§2) The cell extract (2 ml) of a candidate mutant was applied onto a HiTrap Q column (5 ml) pre-equilibrated with buffer B (50 mM Mops/pH 7.5, 1 mM DTT, 0.4 mM pefabloc SC, and 0.5 μg/ml leupeptin). Then, the column was washed with 20 ml of buffer B, followed by a further wash with 25 ml of buffer B containing 120 mM NaCl, and DAOCS was eluted off with 20 ml of buffer B containing 150 mM NaCl. The DAOCS containing fractions were pooled (10 ml), concentrated by UF 15 device (NMWL 5K; Millipore), and loaded onto a Hiload Superdex 75 (16/60) column pre-equilibrated with buffer B at a flow rate of 1 ml/min.
(§3) The standard penicillin G assay was followed for kinetic assay, but 20 μg of purified DAOCS was used and the concentration of α-ketoglutarate was reduced to 1 mM. Kinetic parameters were obtained from triplicate experiments by Hanes-Woolf Plot. For assays using penicillin N as a main substrate, a total volume of 240 μl reaction containing 50 mM Hepes/pH 7.5, 0.4 mM ascorbate, 0.1 mM FeSO4, 0.1 mM α-ketoglutarate, 0.1 mM penicillin N and 0.5 μg of purified DAOCS was incubated at 30° C. for 10 minutes, then the same volume of 10 mM EDTA/pH 7.5 was added, and the mixture was subjected to ultrafiltration with UF 0.5 device (NMWL 5000, Millipore). The filtrate was analyzed by HPLC using 25 mM potassium phosphate/pH 6.5 as a mobile phase. The retention time of DAOC and penicillin N was 12 minutes and 13.5 minutes, respectively The results of kinetic parameters are shown in Table 1, wherein the definition and calculation of the parameters are described in Lehninger et al. Principles of Biochemistry, 2nd Ed. Worth Publishers, New York (1993) which is incorporated herein for reference.

[3] = Kinetic assay of purified DAOCS with penicillin G (standard penicillin G assay, HPLC of cephalosporin G); conditions: for penicillin G, 20 μg purified DAOCS, 1 mM α-ketoglutarate, 30° C.; for Km: triplicate, Hanes-Woolf Plot
Description: as §1, §2, §3

[4] = Relative activity of purified combined mutants compared to wild type DAOCS; conditions: 1 mM penicillin G; activity of wild-type DAOCS as 100%
Description: as §1, §3
The relative activities of the mutants are determined according to Chin H. S. et al supra with the activity of wild-type DAOCS as 100% and shown in Table 2. The assay was performed with 1 mM penicillin G, and the other conditions were the same as standard assay.

Molecule | expandase activity on penicillin G compared to parent strain YS16 [1] | kcat [2] [S^−1] | Km [2] [µM] | kcat [3] [S^−1] | Km [3] [µM] | expansion activity on penicillin N, folds higher than wild-type YS16 ([2]; penicillin N, compared to wild-type YS16) [folds] | Relative Activities [4] [%]
YS49: mutated penicillin expandase (DAOCS) with substitution L277K (protein, UniProt P18548 1-311, looked up, variant L277K) Deacetoxycephalosporin C …: MDTTVPTFSLAELQQGLHQDEFRRCLRDKGLFYLTDCGLTDTELKSAKDLVIDFFEHGSEAEKRAVTSPVPTMRRGFTGLESESTAQITNTGSYSDYSMCYSMGTADNLFPSGDFERIWTQYFDRQYTASRAVAREVLRATGTEPDGGVEAFLDCEPLLRFRYFPQVPEHRSAEEQPLRMAPHYDLSMVTLIQQTPCANGFVSLQAEVGGAFTDLPYRPDAVLVFCGAIATLVTGGQVKAPRHHVAAPRRDQIAGSSRTSSVFFLRPNADFTFSVPKARECGFDVSLDGETATFQDWIGGNYVNIRRTSKA | higher expandase activities on penicillin G than the parent strain YS16 | 0.220 ± 0.042 | 11 ± 5 | 0.0514 ± 0.0008 | 720 ± 20 |  | 
YS12: mutated penicillin expandase (DAOCS) with substitution N304K (protein, UniProt P18548 1-311, looked up, variant N304K) Deacetoxycephalosporin C …: MDTTVPTFSLAELQQGLHQDEFRRCLRDKGLFYLTDCGLTDTELKSAKDLVIDFFEHGSEAEKRAVTSPVPTMRRGFTGLESESTAQITNTGSYSDYSMCYSMGTADNLFPSGDFERIWTQYFDRQYTASRAVAREVLRATGTEPDGGVEAFLDCEPLLRFRYFPQVPEHRSAEEQPLRMAPHYDLSMVTLIQQTPCANGFVSLQAEVGGAFTDLPYRPDAVLVFCGAIATLVTGGQVKAPRHHVAAPRRDQIAGSSRTSSVFFLRPNADFTFSVPLARECGFDVSLDGETATFQDWIGGNYVKIRRTSKA | higher expandase activities on penicillin G than the parent strain YS16 | 0.366 ± 0.023 | 4 ± 1 | 0.0564 ± 0.0003 | 220 ± 30 | 4 | 
YS8: mutated penicillin expandase (DAOCS) with substitution I305L (protein, UniProt P18548 1-311, looked up, variant I305L) Deacetoxycephalosporin C …: MDTTVPTFSLAELQQGLHQDEFRRCLRDKGLFYLTDCGLTDTELKSAKDLVIDFFEHGSEAEKRAVTSPVPTMRRGFTGLESESTAQITNTGSYSDYSMCYSMGTADNLFPSGDFERIWTQYFDRQYTASRAVAREVLRATGTEPDGGVEAFLDCEPLLRFRYFPQVPEHRSAEEQPLRMAPHYDLSMVTLIQQTPCANGFVSLQAEVGGAFTDLPYRPDAVLVFCGAIATLVTGGQVKAPRHHVAAPRRDQIAGSSRTSSVFFLRPNADFTFSVPLARECGFDVSLDGETATFQDWIGGNYVNLRRTSKA | higher expandase activities on penicillin G than the parent strain YS16 | 0.284 ± 0.030 | 6 ± 2 | 0.0759 ± 0.0015 | 660 ± 70 |  | 
YS16: wild-type expandase (DAOCS, cefE gene) from Streptomyces clavuligerus, parent strain (protein, UniProt P18548 1-311, looked up) Deacetoxycephalosporin C …: MDTTVPTFSLAELQQGLHQDEFRRCLRDKGLFYLTDCGLTDTELKSAKDLVIDFFEHGSEAEKRAVTSPVPTMRRGFTGLESESTAQITNTGSYSDYSMCYSMGTADNLFPSGDFERIWTQYFDRQYTASRAVAREVLRATGTEPDGGVEAFLDCEPLLRFRYFPQVPEHRSAEEQPLRMAPHYDLSMVTLIQQTPCANGFVSLQAEVGGAFTDLPYRPDAVLVFCGAIATLVTGGQVKAPRHHVAAPRRDQIAGSSRTSSVFFLRPNADFTFSVPLARECGFDVSLDGETATFQDWIGGNYVNIRRTSKA |  | 0.307 ± 0.038 | 14 ± 6 | 0.0453 ± 0.0010 | 2580 ± 220 |  | 100
YS11: mutated penicillin expandase (DAOCS) with substitution I305M (protein, UniProt P18548 1-311, looked up, variant I305M) Deacetoxycephalosporin C …: MDTTVPTFSLAELQQGLHQDEFRRCLRDKGLFYLTDCGLTDTELKSAKDLVIDFFEHGSEAEKRAVTSPVPTMRRGFTGLESESTAQITNTGSYSDYSMCYSMGTADNLFPSGDFERIWTQYFDRQYTASRAVAREVLRATGTEPDGGVEAFLDCEPLLRFRYFPQVPEHRSAEEQPLRMAPHYDLSMVTLIQQTPCANGFVSLQAEVGGAFTDLPYRPDAVLVFCGAIATLVTGGQVKAPRHHVAAPRRDQIAGSSRTSSVFFLRPNADFTFSVPLARECGFDVSLDGETATFQDWIGGNYVNMRRTSKA | higher expandase activities on penicillin G than the parent strain YS16 | 0.310 ± 0.004 | 12 ± 1 | 0.1452 ± 0.0020 | 750 ± 40 |  | 
